According to US6387642:

Assays:
[1] = target: Cdc2-cyclin B1 complex containing the T14A mutant of Xenopus Cdc2
[2] = target: Cdc2-cyclin B1 complex containing the T14A,Y15F double mutant of Xenopus Cdc2
[3] = target: Cdc2-cyclin B1 complex containing the T161A mutant of Xenopus Cdc2
[4] = target: Cdc2-cyclin B1 complex containing the Y15F mutant of Xenopus Cdc2
[5] = target: Cdc2-cyclin B1 complex containing the triple mutant T14A,Y15F,N133A of Xenopus Cdc2
[6] = target: Purified recombinant Cdc2-cyclin B1 complex containing wild-type Xenopus Cdc2
[7] = target: Cdc2-cyclin B1 complex containing the T14A mutant of Xenopus Cdc2 (Xenopus); experiment: cell-based or functional assay
[8] = target: Cdc2-cyclin B1 complex containing the Y15F mutant of Xenopus Cdc2 (Xenopus); experiment: cell-based or functional assay
[9] = target: Cdc2-cyclin B1 complex containing the catalytically inactive N133A mutant of Xenopus Cdc2 (Xenopus); experiment: cell-based or functional assay
[10] = target: Purified recombinant Cdc2-cyclin B1 complex containing wild-type Xenopus Cdc2 (Xenopus); experiment: cell-based or functional assay
[11] = target: Cdc2-cyclin B1 complex containing the catalytically inactive N133A mutant of Xenopus Cdc2

B1: Recombinant histidine-tagged Myt1 purified from baculovirus-infected Sf9 cells (enzyme, not shown: small tags and cut ends)
chain: MPVPGDDMGETPLTRTPIPMPAYFSQAEQSFSLKKRGRSLCYTLPPRPPVKSALPVSRIFPNKQRSWSQPRPQSVSFRSPQNKTPASKLYDQSKGDTFFKQCFKSICKLGRGSFGEVYKVQSLEDGCFYAVKRSVSPFRGESDRQRKLQEVRKHERVGEHPNCLRFVRAWEEKRMLYLQTELCAGSLQQHSEEFAGSLPPRRVWNITCDLLHGLKHLHDRNLLHLDIKPANVFISFSGVCKLGDFGLMVELDGTEGSGEAQEGDPRYMAPELLDGIFSKAADVFSLGMSLLEVACNMELPKGGDGWQQLRQGHLPTEFTSDLPPDFLKVLSAMLEPDYRRRATVDWLLSLPAIRNAERWRMVTLAQERTLGKIIAVYQFIVWLLSFVFQWLNRPVIGFLHYCGLRALPRSPPCSPFPNHLGESSFSSDWDDESLGDDVFEVPPSPLATHRNLTYHGQELIGRHSPDLLSRPSLGSTSTPRNLSPEFSMRKRSALPLTPNVSRISQDSTGKSRSPSTSHSSSGFVDAEVQRTLFLPRNLLGMFDDATEQ
[1]
  phosphorylation of Cdc2 mutant, autoradiography: Myt1 can phosphorylate both the TI4A (Thr^14 changed to Ala) and Y15F (Tyr^15 changed to Phe) mutants of Cdc2
  reduction of Cdc2-associated histone H1 kinase activity: a large reduction in activity (60 and 50%, respectively)
[2]
  phosphorylation and H1 kinase activity: the T14A, Y15F double mutant of Cdc2 was neither phosphorylated nor inactivated by Myt1
  phosphorylation of Cdc2 mutant, autoradiography: the T14A,Y15F double mutant was not a substrate for Myt1
[3]
  phosphorylation of Cdc2 mutant, autoradiography: Myt1 did not phosphorylate the T161A mutant of Cdc2 ( FIG. 2A ) on either tyrosine or threonine
[4]
  phosphorylation of Cdc2 mutant, autoradiography: Myt1 can phosphorylate both the TI4A (Thr^14 changed to Ala) and Y15F (Tyr^15 changed to Phe) mutants of Cdc2
  reduction of Cdc2-associated histone H1 kinase activity: a large reduction in activity (60 and 50%, respectively)
[5]
  phosphorylation of Cdc2 mutant, autoradiography: the triple mutant T14A,Y15F, N133A was not a substrate for Myt1
[6]
  phosphorylation of Cdc2, compared with single mutants: wild-type Cdc2 appears to be phosphorylated more efficiently than either single mutant
  phosphorylation of Cdc2 in the presence of [γ-32P]ATP, autoradiography: Recombinant Myt1 efficiently phosphorylated cyclin-associated, wild-type Cdc2
  reduction of Cdc2-associated histone H1 kinase activity: Treatment of wild-type Cdc2 with Myt1 caused a 90% reduction in its H1 kinase activity
Monomeric Cdc2
  phosphorylation of Cdc2 in the presence of [γ-32P]ATP: Myt1 did not phosphorylate monomeric Cdc2
[7]
  phosphoamino acid analysis: share of label in phosphotyrosine: 89%
[8]
  phosphoamino acid analysis: share of 32P in phosphothreonine: 96%
[9]
  phosphoamino acid analysis: phosphoserine: < 0.7%
  phosphoamino acid analysis: phosphothreonine: 75%
  phosphoamino acid analysis: phosphotyrosine: 24%
[10]
  phosphoamino acid analysis: share of 32P in phosphothreonine: 77%
  phosphoamino acid analysis: share of 32P in phosphotyrosine: 20%

B2: Endogenous Xenopus Myt1 from interphase egg extract (protein)
chain: B1 chain
[6]
  phosphorylation of Cdc2 by immunoprecipitated Myt1: The immunoprecipitated Myt1 protein efficiently phosphorylated Cdc2 in both assays
  share of Cdc2 shifted to its Thr14-Tyr15 doubly phosphorylated form by the Myt1-depleted extract: the Myt1-depleted extract phosphorylated shifted only about 20% of the substrate
  share of Cdc2 shifted to its Thr14-Tyr15 doubly phosphorylated form by the control extract: the control extract shifted ˜80% of the Cdc2 to its Thr^14-Tyr^15 doubly phosphorylated form
  tyrosine phosphorylation of Cdc2 in Myt1-depleted extract, anti-phosphotyrosine immunoblot: The tyrosine phosphorylation of Cdc2 was dramatically reduced in the Myt1-depleted extract

B3: M phase form of endogenous Xenopus Myt1 (from cytostatic factor-arrested egg extract) (protein)
chain: B1 chain
[11]
  Cdc2-specific kinase activity of immunoprecipitated Myt1, relative to the interphase form: The M phase form was about one-fifth as active as the Myt1 protein from either type of interphase extract
